Experimental data taken from the supplement of paper PMC9112550, “Optimization of the antimicrobial peptide Bac7 by deep mutational scanning” (BMC Biology, 2022).

test system: Escherichia coli TOP10; assay: shrunken log2 fold change of peptide-encoding DNA abundance (4.5 h post-induction vs induction); higher = less antimicrobial activity (less host growth inhibition); details: time post-induction: 4.5 h; library: site-saturation at positions 5, 18, 19, 20
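Further: peptides expressed intracellularly from a pBAD plasmid library in pooled LB shake-flask culture, induced with 0.3% L-arabinose, DNA abundance read by NGS, three biological replicates, DESeq2 with apeglm shrinkage.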

Compared with RRIRMRPPRLPRPRPRPMKYPRP, RRIRCRPPRLPRPRPRPNSGPRP is lower in “shrunken log2 fold change” value: 0.0979 for the first, -0.224 for the second.

RRIRDRPPRLPRPRPRPYRGPRP and RRIRERPPRLPRPRPRPKREPRP are within 0.2 log units of each other in “shrunken log2 fold change” value: -0.0122 for the first, 0.118 for the second.

Compared with RRIRPRPPRLPRPRPRPNMIPRP, RRIRHRPPRLPRPRPRPDIFPRP is higher in “shrunken log2 fold change” value: -0.531 for the first, -0.223 for the second.

First: RRIRHRPPRLPRPRPRPISKPRP
Second: RRIRFRPPRLPRPRPRPHFWPRP
The “shrunken log2 fold change” value of the first is lower: -0.929 for the first, -0.124 for the second.

RRIRQRPPRLPRPRPRPNQCPRP and RRIRARPPRLPRPRPRPMLMPRP are within 0.2 log units of each other in “shrunken log2 fold change” value: 0.0304 for the first, 0.044 for the second.

RRIRNRPPRLPRPRPRPIQFPRP and RRIRHRPPRLPRPRPRPPNIPRP are within 0.2 log units of each other in “shrunken log2 fold change” value: -0.178 for the first, -0.157 for the second.

RRIRERPPRLPRPRPRPGTAPRP and RRIRPRPPRLPRPRPRPSGVPRP are within 0.2 log units of each other in “shrunken log2 fold change” value: -0.0769 for the first, -0.0831 for the second.

Compared with RRIRWRPPRLPRPRPRPEAEPRP, RRIRPRPPRLPRPRPRPWFCPRP is lower in “shrunken log2 fold change” value: 1.53 for the first, 0.138 for the second.

Compared with RRIRARPPRLPRPRPRPKPYPRP, RRIRRRPPRLPRPRPRPNYDPRP is lower in “shrunken log2 fold change” value: 0.0727 for the first, -0.187 for the second.

Going from RRIRTRPPRLPRPRPRPLIEPRP to RRIRGRPPRLPRPRPRPQERPRP, the “shrunken log2 fold change” value rises from -0.325 to 0.595.

Compared with RRIRYRPPRLPRPRPRPPWIPRP, RRIRPRPPRLPRPRPRPPATPRP is higher in “shrunken log2 fold change” value: -0.447 for the first, 0.939 for the second.

Compared with RRIRQRPPRLPRPRPRPWCGPRP, RRIRARPPRLPRPRPRPGPMPRP is higher in “shrunken log2 fold change” value: -0.00744 for the first, 0.676 for the second.

First: RRIRSRPPRLPRPRPRPMMWPRP
Second: RRIRGRPPRLPRPRPRPIQKPRP
The “shrunken log2 fold change” value of the first is higher: 0.598 for the first, 0.0229 for the second.

First: RRIRLRPPRLPRPRPRPNYPPRP
Second: RRIRCRPPRLPRPRPRPNMRPRP
The “shrunken log2 fold change” value of the first is lower: -0.156 for the first, 0.357 for the second.

RRIRNRPPRLPRPRPRPVYMPRP and RRIRARPPRLPRPRPRPNRDPRP are within 0.2 log units of each other in “shrunken log2 fold change” value: -0.0311 for the first, -0.183 for the second.

RRIRNRPPRLPRPRPRPNEHPRP and RRIRKRPPRLPRPRPRPDAWPRP are within 0.2 log units of each other in “shrunken log2 fold change” value: -0.071 for the first, -0.0106 for the second.

RRIRNRPPRLPRPRPRPGVTPRP and RRIRNRPPRLPRPRPRPTNCPRP are within 0.2 log units of each other in “shrunken log2 fold change” value: 0.0223 for the first, 0.143 for the second.

RRIRNRPPRLPRPRPRPKGFPRP and RRIRLRPPRLPRPRPRPDPVPRP are within 0.2 log units of each other in “shrunken log2 fold change” value: -0.0324 for the first, -0.0275 for the second.

RRIRMRPPRLPRPRPRPLTVPRP and RRIRVRPPRLPRPRPRPFLEPRP are within 0.2 log units of each other in “shrunken log2 fold change” value: 0.169 for the first, 0.0733 for the second.

Compared with RRIRPRPPRLPRPRPRPKWYPRP, RRIRKRPPRLPRPRPRPTECPRP is higher in “shrunken log2 fold change” value: -0.161 for the first, 0.119 for the second.

Going from RRIRQRPPRLPRPRPRPHVMPRP to RRIRWRPPRLPRPRPRPQSGPRP, the “shrunken log2 fold change” value rises from -0.444 to 0.186.

Going from RRIRIRPPRLPRPRPRPLDLPRP to RRIRERPPRLPRPRPRPRMPPRP, the “shrunken log2 fold change” value rises from -0.415 to -0.0437.

RRIRGRPPRLPRPRPRPDHWPRP and RRIRYRPPRLPRPRPRPRADPRP are within 0.2 log units of each other in “shrunken log2 fold change” value: 0.186 for the first, 0.0349 for the second.

RRIRFRPPRLPRPRPRPNFSPRP and RRIRYRPPRLPRPRPRPFMMPRP are within 0.2 log units of each other in “shrunken log2 fold change” value: -0.283 for the first, -0.108 for the second.

Going from RRIRQRPPRLPRPRPRPTDEPRP to RRIRTRPPRLPRPRPRPTCFPRP, the “shrunken log2 fold change” value falls from -0.131 to -0.35.

First: RRIRTRPPRLPRPRPRPHTDPRP
Second: RRIRGRPPRLPRPRPRPKTGPRP
The “shrunken log2 fold change” value of the first is lower: -0.401 for the first, 0.692 for the second.

Going from RRIRGRPPRLPRPRPRPIAEPRP to RRIRQRPPRLPRPRPRPPIVPRP, the “shrunken log2 fold change” value falls from 3.26 to -0.015.

RRIRYRPPRLPRPRPRPINDPRP and RRIRTRPPRLPRPRPRPGWMPRP are within 0.2 log units of each other in “shrunken log2 fold change” value: -0.0981 for the first, -0.182 for the second.

RRIRDRPPRLPRPRPRPSEFPRP and RRIRQRPPRLPRPRPRPTNLPRP are within 0.2 log units of each other in “shrunken log2 fold change” value: -0.0277 for the first, -0.0248 for the second.

RRIRMRPPRLPRPRPRPVKCPRP and RRIRCRPPRLPRPRPRPRHTPRP are within 0.2 log units of each other in “shrunken log2 fold change” value: -0.0525 for the first, -0.0438 for the second.

Compared with RRIRFRPPRLPRPRPRPSFKPRP, RRIRDRPPRLPRPRPRPNSYPRP is higher in “shrunken log2 fold change” value: -0.683 for the first, 0.179 for the second.

RRIRERPPRLPRPRPRPDNGPRP and RRIRIRPPRLPRPRPRPVWWPRP are within 0.2 log units of each other in “shrunken log2 fold change” value: -0.0776 for the first, 0.0779 for the second.

Going from RRIRCRPPRLPRPRPRPRGEPRP to RRIRERPPRLPRPRPRPIIWPRP, the “shrunken log2 fold change” value falls from 0.435 to -0.204.

Going from RRIRERPPRLPRPRPRPLFMPRP to RRIRWRPPRLPRPRPRPAMFPRP, the “shrunken log2 fold change” value rises from -0.222 to 0.324.

Going from RRIRPRPPRLPRPRPRPAIVPRP to RRIRRRPPRLPRPRPRPTWWPRP, the “shrunken log2 fold change” value rises from 0.119 to 0.57.

RRIRGRPPRLPRPRPRPNPDPRP and RRIRKRPPRLPRPRPRPQQDPRP are within 0.2 log units of each other in “shrunken log2 fold change” value: 0.221 for the first, 0.179 for the second.

Compared with RRIRVRPPRLPRPRPRPDADPRP, RRIRNRPPRLPRPRPRPSFIPRP is lower in “shrunken log2 fold change” value: 0.793 for the first, -0.934 for the second.

With RRIRVRPPRLPRPRPRPDPEPRP the “shrunken log2 fold change” value was -0.0984.
